Measured values published in PMC3070748.

Molecular target: Gemin7 BiFC construct (UniProt Q9H840)
Test: split reporter

UniProt Q9H840, sequence (Q9H840 whole entry): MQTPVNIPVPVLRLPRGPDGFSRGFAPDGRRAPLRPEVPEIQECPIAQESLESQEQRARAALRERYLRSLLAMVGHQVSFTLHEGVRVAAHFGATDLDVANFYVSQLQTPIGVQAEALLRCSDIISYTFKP

murine Unrip fused to a Venus fragment (BiFC construct) (from UniProt Q9Z1Z2 1-350) (natural protein)
percent of BiFC-positive cells: 56%
